Consider 1 substance from patent publication US9359418B2, “Inhibitors of the T cell-specific alternative p38 activation pathway and methods of use” (The United States of America, as represented by the …, priority 2012, dated 2016).

The target of this test is recombinant p38α (Homo sapiens, UniProt Q16539). Nature of the test: GST pull-down of recombinant p38α by truncated Gadd45α portions. The format is binding. The conditions noted are these: Gadd45α portions fused to GST, in vitro. The text has this: This example describes a Gadd45α 71-85 polypeptide fused to a cell-penetrating peptide (11R) and its ability to block the T cell-specific alternative p38 activation pathway. The minimal region of Gadd45α capable of binding to p38 was identified by fusing various truncated portions of Gadd45α to GST and using the product to pull down recombinant p38α in vitro.
recombinant p38α, sequence (Q16539 whole entry, the tested form may be a part): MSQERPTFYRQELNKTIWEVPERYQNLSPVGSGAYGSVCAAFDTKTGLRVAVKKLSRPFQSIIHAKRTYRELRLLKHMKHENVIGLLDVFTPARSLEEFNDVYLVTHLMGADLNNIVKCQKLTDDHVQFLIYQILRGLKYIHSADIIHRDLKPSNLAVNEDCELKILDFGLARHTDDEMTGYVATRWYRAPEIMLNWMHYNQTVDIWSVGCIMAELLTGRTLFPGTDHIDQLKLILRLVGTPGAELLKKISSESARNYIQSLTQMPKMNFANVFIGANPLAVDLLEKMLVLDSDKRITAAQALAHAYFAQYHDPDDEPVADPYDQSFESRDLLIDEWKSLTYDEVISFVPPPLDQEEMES

No end group written: not given here.

Take “71-85 fragment: residues 71-85 of Gadd45α fused to GST, used to pull down recombinant p38α (LQIHFTLIQAFCCEN; cysteine pairing not given here; also: fused to GST; UniProt P24522 71-85, looked up, fragment)”: the “pull down of recombinant p38α” value is reported as “pulled down p38α as well as the full length protein”.
